Experimental data taken from article PMC9788986, “Dynamic chromatin accessibility deploys heterotypic cis/trans-acting factors driving stomatal cell-fate commitment” (Nature Plants, 2022).

T1: MUTE-SCRM heterodimer (A. thaliana, UniProt Q9M8K6 1-202; Q9LSE2 1-494)
T1 construct: MUTE, Arabidopsis thaliana, residues 1-202, in pET28a; also called SCRM-MUTE heterodimer; source: E. coli BL21, purified (MUTE: Ni-NTA, gel filtration; SCRM: glutathione resin, thrombin, gel filtration); not shown: GST, N-terminal, cleaved
T1 sequence (looked up) 1: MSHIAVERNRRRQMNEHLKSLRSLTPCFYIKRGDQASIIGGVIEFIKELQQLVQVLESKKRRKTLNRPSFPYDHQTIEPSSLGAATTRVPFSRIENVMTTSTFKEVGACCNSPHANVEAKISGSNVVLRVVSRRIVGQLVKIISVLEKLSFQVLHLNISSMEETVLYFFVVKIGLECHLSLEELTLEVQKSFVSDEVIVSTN
T1 sequence (looked up) 2: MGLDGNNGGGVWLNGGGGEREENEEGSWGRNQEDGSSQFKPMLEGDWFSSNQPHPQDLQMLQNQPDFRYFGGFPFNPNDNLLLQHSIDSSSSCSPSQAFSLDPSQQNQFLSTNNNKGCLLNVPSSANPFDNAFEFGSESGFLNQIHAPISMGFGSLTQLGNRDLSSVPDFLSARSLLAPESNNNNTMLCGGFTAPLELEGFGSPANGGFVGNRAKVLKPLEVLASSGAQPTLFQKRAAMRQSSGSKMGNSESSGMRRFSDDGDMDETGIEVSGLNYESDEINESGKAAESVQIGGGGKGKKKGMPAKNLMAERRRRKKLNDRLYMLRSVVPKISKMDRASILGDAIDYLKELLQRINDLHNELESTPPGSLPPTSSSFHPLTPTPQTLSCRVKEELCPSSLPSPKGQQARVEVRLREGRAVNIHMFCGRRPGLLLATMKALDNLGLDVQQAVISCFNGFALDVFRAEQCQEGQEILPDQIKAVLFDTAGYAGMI

T2: His tagged BPC1 (1-283) (A. thaliana, UniProt Q9SKD0 1-283)
T2 chain: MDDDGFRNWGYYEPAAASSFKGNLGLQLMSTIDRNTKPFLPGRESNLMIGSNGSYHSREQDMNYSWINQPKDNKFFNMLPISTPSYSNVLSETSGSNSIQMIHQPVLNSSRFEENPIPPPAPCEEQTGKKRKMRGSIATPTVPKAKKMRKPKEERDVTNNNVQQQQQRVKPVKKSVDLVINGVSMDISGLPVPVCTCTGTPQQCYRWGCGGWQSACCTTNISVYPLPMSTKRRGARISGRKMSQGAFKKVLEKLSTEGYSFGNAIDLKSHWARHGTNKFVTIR

T3: His tagged BPC2 (1-279) (A. thaliana, UniProt Q9LDE2 1-279)
T3 chain: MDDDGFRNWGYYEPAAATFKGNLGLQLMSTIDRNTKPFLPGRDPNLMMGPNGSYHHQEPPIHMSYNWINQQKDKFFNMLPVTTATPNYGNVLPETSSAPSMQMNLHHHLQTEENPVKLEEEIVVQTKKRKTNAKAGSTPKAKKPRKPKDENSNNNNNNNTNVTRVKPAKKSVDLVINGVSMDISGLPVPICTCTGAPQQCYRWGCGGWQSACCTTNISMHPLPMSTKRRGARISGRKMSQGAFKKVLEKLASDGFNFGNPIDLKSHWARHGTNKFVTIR

B1: His tagged BPC1 (1-283) (natural protein, A. thaliana, UniProt Q9SKD0 1-283, looked up)
chain: T2 chain
notes: BPC1 (BASIC … 1), Arabidopsis thaliana, residues 1-283, in pET28a; source: E. coli BL21, purified (Ni-NTA, gel filtration on Superdex-200); not shown: His tag, N-terminal, kept
B2: His tagged BPC2 (1-279) (natural protein, A. thaliana, UniProt Q9LDE2 1-279, looked up)
chain: T3 chain
notes: BPC2 (BASIC … 2), Arabidopsis thaliana, residues 1-279, in pET28a; source: E. coli BL21, purified (Ni-NTA, gel filtration on Superdex-200); not shown: His tag, N-terminal, kept
B3: SPCH-SCRM heterodimer (complex)
chain 1: MQEIIPDFLEECEFVDTSLAGDDLFAILESLEGAGEISPTAASTPKDGTTSSKELVKDQDYENSSPKRKKQRLETRKEEDEEEEDGDGEAEEDNKQDGQQKMSHVTVERNRRKQMNEHLTVLRSLMPCFYVKRGDQASIIGGVVEYISELQQVLQSLEAKKQRKTYAEVLSPRVVPSPRPSPPVLSPRKPPLSPRINHHQIHHHLLLPPISPRTPQPTSPYRAIPPQLPLIPQPPLRSYSSLASCSSLGDPPPYSPASSSSSPSVSSNHESSVINELVANSKSALADVEVKFSGANVLLKTVSHKIPGQVMKIIAALEDLALEILQVNINTVDETMLNSFTIKIGIECQLSAEELAQQIQQTFC
chain 2: T1 sequence (looked up) 2

Columns and labels:
MUTE-SCRM heterodimer = target: T1, MUTE-SCRM heterodimer; experiment: BLI; Octet Red96; Ni-NTA probes loaded with 500 nM His tagged BPC1 or BPC2; heterodimer as analyte at seven concentrations (200 to 3.12 nM by the methods); 30 °C; 1× PBS with 0.02% Tween 20; 1:1 model, Kd by steady-state analysis; details: both partners purified
His tagged BPC1 (1-283) = target: T2, His tagged BPC1 (1-283); experiment: BLI
His tagged BPC2 (1-279) = target: T3, His tagged BPC2 (1-279); experiment: BLI

Row | Binder | Kd (MUTE-SCRM heterodimer) [nM] | Kd (His tagged BPC1 (1-283)) [nM] | Kd (His tagged BPC2 (1-279)) [nM]
1 | B1 | 4.8 ± 1.6 | – | –
2 | B2 | 11 ± 1.6 | – | –
3 | B3 | – | 126 | 227
